Laboratory results published in PMC6753080.

How the values were obtained:
[1] = target: 6xHis-MBP-ERC1 fusion protein (mouse); assay: rotary shadowing electron microscopy; purified MBP-ERC1 diluted in spraying buffer (100 mM ammonium acetate, 30% glycerol), sprayed onto mica, platinum and carbon coated
[2] = target: 6xHis-MBP-ERC1 fusion protein (mouse); assay: static light scattering; purified ERC1 on a Viskotek TDAMax system; data averaged across the protein elution volume; protein purified in 20 mM HEPES pH 7.4, 250 mM NaCl, 0.5 mM TCEP
[3] = target: GFP-ERC1 (mouse); assay: Numbers & Brightness; cytoplasm of living COS7 cells expressing GFP-ERC1; brightness compared with monomeric and dimeric GFP; confocal time series of 300 images

Chain of GFP-ERC1 (Q99MI1 whole entry): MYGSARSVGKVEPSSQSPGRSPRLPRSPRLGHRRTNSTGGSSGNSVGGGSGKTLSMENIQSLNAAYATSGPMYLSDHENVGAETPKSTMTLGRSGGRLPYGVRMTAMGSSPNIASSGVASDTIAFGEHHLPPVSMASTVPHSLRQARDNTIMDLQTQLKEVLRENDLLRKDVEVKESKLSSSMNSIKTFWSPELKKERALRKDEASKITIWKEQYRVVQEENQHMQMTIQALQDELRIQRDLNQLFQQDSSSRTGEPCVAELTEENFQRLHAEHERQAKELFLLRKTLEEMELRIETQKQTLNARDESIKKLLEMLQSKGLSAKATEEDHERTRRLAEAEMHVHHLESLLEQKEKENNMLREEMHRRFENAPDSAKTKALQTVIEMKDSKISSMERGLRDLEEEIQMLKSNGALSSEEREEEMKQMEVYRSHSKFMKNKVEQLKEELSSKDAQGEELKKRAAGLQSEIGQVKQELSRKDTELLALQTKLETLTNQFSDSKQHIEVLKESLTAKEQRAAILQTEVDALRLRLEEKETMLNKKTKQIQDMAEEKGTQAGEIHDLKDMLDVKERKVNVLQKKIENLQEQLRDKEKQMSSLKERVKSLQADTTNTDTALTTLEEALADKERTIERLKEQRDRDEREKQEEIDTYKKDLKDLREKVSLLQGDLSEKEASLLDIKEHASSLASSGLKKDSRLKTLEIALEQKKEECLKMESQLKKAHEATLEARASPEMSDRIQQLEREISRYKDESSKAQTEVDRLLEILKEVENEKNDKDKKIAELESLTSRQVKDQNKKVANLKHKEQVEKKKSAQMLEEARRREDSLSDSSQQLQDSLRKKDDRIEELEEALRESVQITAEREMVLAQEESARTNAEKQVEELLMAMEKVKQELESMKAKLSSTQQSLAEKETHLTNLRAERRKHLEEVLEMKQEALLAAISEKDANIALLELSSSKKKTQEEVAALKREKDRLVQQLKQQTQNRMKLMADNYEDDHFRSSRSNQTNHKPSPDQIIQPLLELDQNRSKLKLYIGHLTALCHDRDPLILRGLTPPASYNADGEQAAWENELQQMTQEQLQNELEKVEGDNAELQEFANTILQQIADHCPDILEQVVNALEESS

stoichiometry N [1]	stoichiometry N [2]	brightness ratio to monomeric GFP [3]	stoichiometry N [3]	Substance
2	2			6xHis-MBP-ERC1 fusion protein (natural protein)
		2.1	2	GFP-ERC1 (natural protein)
